The DeepSol protein solubility set

experiment: soluble on expression in E. coli; label from the status in PepcDB or PDB records

Q: For “MGLELRAIQSPIFSEPFDFTFHAQAFTLLVGSSGSGKSSLFQMIAQVSSLPYSGQVLIDGSEVSQLSIVERVQTVGILLQNPNHQFTMESLFEELVFTMENIGYHLQEIDSKIAEVVQQCRCKDILHRLIHHLSGGEKQKAALAVLFAMNPRVYLLDEPFASIDRKSRIEILEILKELVYDGKTVILCDHDLSDYKAYIDHMVELRDGKLREVFQIPSYEMTQVASKEVASSPELFHMNRVTGELGNRPLFSIADFTFYQGISCILGDNGVGKSTLFRSILQFQKYKGSITWKGSVLKKKKSLYRDLTGVVQEAEKQFIRVSLREELQLDGPDSERNQRIFQALRYFDLEQAVDKSPYQLSGGQQKILQLLTILTSKASVILLDEPFAGLDDRACHYFCKWIVEERNQGRSFLLISHRLDPLISVVDYWIEMTSQGLRHVKEVTITKPLTSQSSNTQGEVR”, which “soluble on expression in E. coli” value is on record?
A: The value was “not soluble”.

Q: With “TSIMAVTFKDGVILGADSRTTTGAYIANRVTDKLTRVHDKIWCCRSGSAADTQAIADIVQYHLELYTSQYGTPSTETAASVFKELCYENKDNLTAGIIVAGYDDKNKGEVYTIPLGGSVHKLPYAIAGSGSTFIYGYCDKNFRENMSKEETVDFIKHSLSQAIKWDGSSGGVIRMVVLTAAGVERLIFYPDEYEQL” as the sequence, how does the “soluble on expression in E. coli” value read?
A: Its value is “soluble”.

Q: For “MSMATVDPWMQNLPQITNQDFFHSSGIECWNRQFPDHRVVEENGPIKTKDALMILYFITVRNIRKNRNTITRIRDALKSPVSIFRRSPKLSLQEDVLSWQKSPESLAASEYGSKLFVQFLKQQTSADDVDFWLACAKHRWTEMTRDGYEYAAYMIYNTYVFWTCERKIDLLDKFCFVDDDGGTPRDVFITAQAYVGTKFPKDSHKKFLQDPIYLNFLHSVSSAANQQKK”, which “soluble on expression in E. coli” value is on record?
A: Its value is “not soluble”.

Q: Which “soluble on expression in E. coli” value does the source give for “MGSDKIHHHHHHMLKDFAKLETFLIVVRERSFSKASAKLGISQPAVTQQIKYIEEYLDTKIIERKKNGVKLTKDGEKLLTIALRLERAIVTAEKETMKIIKKDFSFNIGASFTIGNYILPNCLGNIKEMIKNDVFVKIDSSDNIIEALIEKKIDLALIESPIFKDNIVYREWVEDEFVLFSNSPLPKTVKKEDLLTFSWICREWGSNTRRIINETLDDVGIDCTTFDIKGVVSSSTGVKHTVLKSPKFPEESPKPTVAILSKYVVQDDLVNNSLHESKIRGCKLKRKLYLAYLKDRKNDAFVDTVSSCLMCNKNLG” here?
A: Its value is “not soluble”.

Q: For “VGDLYYHVGVNATFIKNELTEVNGSRDEWQGFNPHAKGTITYAKTGHSIGYFNLIKTDGVFQSQQEIDAYVDKNGNKIQPNAQPGDLRFVDYNGDGKIDNNDRQDVGSAFPKVNLGVSLGAEWKGLDLNMFFDGNFGNKIYNAQYYSTVYNESTGNQYAERMNSWTENNHSDIPRCLFGTSDPNGTNWGYTDRWLENGSFLRLKTLELGYTLPKVWVSKAGLQNVRVYTAMENLFTITDYKGYTPDLGMVDADGAGTSGGSGVMTRGCDDGRYPMARTITFGLQVNF”, which “soluble on expression in E. coli” value is on record?
A: The value was “not soluble”.

Q: With “MAHHHHHHSLITIETVLTILKNNANFREIIDGKHYQYKYSNPEVAFHHISYDSRDIKASTLFFVKGATFKKEFLEKAIESGLTFYVAEKDYQVGIPLILVNNIKNAMCLIAKEFYDNPQDKLKTLAFTGTKGKTTAAYFAYHILKQGYRPAMISTMNTTLDGKTFFKSKLTTPESLDLFKMMAQAVANGMTHLIMEVSSQAYLVGRVYGLTFDVGVFLNISPDHIGPIEHPTFEDYFYHKRLLLKHSRYVIVNSQMNHFALIKEQVADQPHDFYGKYSDNQIINSKAFSFDLTGKLAGHYDIQLTGSFNQENAVAAALACLQLGASQTDIQKGIVQTTVPGRMEVLIQKNGAKVFVDYAHNGDSLEKLLSVVEEHQKGTLILILGAPGNKGESRRADFGYVINAHPELQVILTADDPNNEDPQLISQEIAHHIKRPVNIIVDRKQAIQKAMSLTQSENDAVIIAGKGADAFQIIKGKRTAYAGDIEVARKYLEG” as the sequence, how does the “soluble on expression in E. coli” value read?
A: The value was “soluble”.

Q: Which “soluble on expression in E. coli” value does the source give for “MGSDKIHHHHHHMNANQFLKAVSQLQGWRECAFLLALAERSFPNYALFADAVGLKTGGKMRQLLDLAWDMLQKDVADAAIPQLLSKLETLCPNVDEYDAYGVYPAFDFCQLLEQALLNRLNPNKHRATEASQLATRTVMDFVEMSEGEGMDENELVRVFEHHPLLKDDKLFQRDTVMALKKQRTPKEAFLAELRAGAANDGVSNLGISLEG” here?
A: Its value is “not soluble”.

Q: Which “soluble on expression in E. coli” value does the source give for “MAQKSALIILAAEGAEEMEVIITGDVLARGEIRVVYAGLDGAEPVKCARGAHIVPDVKLEDVETEKFDIVILPGGQPGSNTLAESLLVRDVLKSQVESGGLIGAICAAPIALLSHGVKAELVTSHPSVKEKLEKGGYKYSEDRVVVSGKIITSRGPGTAFEFALKIVELLEGKDKATSLIAPMLLKL” here?
A: Its value is “not soluble”.

Q: Which “soluble on expression in E. coli” value does the source give for “MGSDKIHHHHHHMAAPIIHGGGITEAAARFGGTPEDWLDLSTGINPCPAALPEIDARVWHRLPDRHVEEAARAAASRYYRTGELMPLPVPGTQAAIQLLPRIAGQRKRVAIFAPTYGEYARVLKAAGLVVDSVTCAGDLQAAHGLAVVVNPNNPTGRRFPPEEILAMAEAMRAHGGLLVVDEAFGDLEPDASVAGHVAANDNLVVFRSFGKYFGLAGLRLGFVVASRTVEDSFRDWLGPWSVSGPALAISAKLMEGDTLGIKVGIAERKAALDAVLFGAGLDVVGGTGLFTLVEHERAYDLHAALCEAHILTRKFDYDPRWLRIGLSPNAQGDRRLAEALNRMGV” here?
A: The value was “not soluble”.

Q: Which “soluble on expression in E. coli” value does the source give for “GPGTFGTAKARYDFCARDRSELSLKEGDIIKILNKKGQQGWWRGEIYGRIGWFPSNYVEEDYSEYLPETGGGSGSSMTYKLILNGKTLKGETTTEAVDAATAEKVFKQYANDNGVDGEWTYDDATKTFTVTEHSLEHHHHHH” here?
A: The value was “soluble”.

Q: Which “soluble on expression in E. coli” value does the source give for “MSLQYQVVPVTAFAQNCSIVWCDETMEGIVVDPGGDVKQLAMLIAELGVKVTQLVLTHGHLDHVGGTQSLAQALGGTRVVGPHKADNFWLQGLEGQSKMFGFPLTEAFEPDEWLDDGDVIHFGQQTLQVIHTPGHTPGHVVLFSEAARLAFVGDVLFNGSIGRTDFPQGDFNTLIASIKNKLWPLGSDVTFIPGHGPQSTFGRERASNPFVADEMPLY” here?
A: Its value is “not soluble”.

Q: Which “soluble on expression in E. coli” value does the source give for “MCTKNETKPLPSFIEERLNFHIQDLIKSNENQKHLVLGKRPSENAVVMQSNDYLSLSHNELIQKAHRDAISERDDNVVMSAIFLQDDQSKPAFEHQLATFVGMESCLLSQSGWAANIGLLQTICAPNLPVYIDFFAHMSLWEGARTAGAQIHPFMHNNMNHLRKQIQRHGAGIIVVDSVYSTIGTIAPLRAIYEMAKEFDCGLVVDESHSLGTHGPEGSGLLQKLGLTQMVDFVTVSLAKTFAYRAGAILGPNKLAQSLPFVAYPAIFSSTVLPQEVVRLEKTLEVIKAADDKRECLFKRAKELAIGLKRIGFNIRSESQIIALECGSERNTERVRDFLEERDVFGAVFCRPATGRNKNIIRFSVNADMTAQQVDHVLSACQEAFDHPDLEFV” here?
A: The value was “not soluble”.

Q: For “FLILLRKTLEQLQEKDTGNIFSEPVPLSEVPDYLDHIKKPMDFFTMKQNLEAYRYLNFDDFEEDFNLIVSNCLKYNAKDTIFYRAAVRLREQGGAVLRQARRQAEKMG”, which “soluble on expression in E. coli” value is on record?
A: Its value is “soluble”.

Q: For “MKKLLSSDRIKAEALRLGFSACGLAPAEAVDETVATAFRQWLADGCQAEMAYMQNYEDKRLDPRLLVEGARTVISVALNYYPAKKLPEGEYQIAWYAYGKDYHDVMKRKLKELFEFIEKEVSFSEETDSTIASTNNIGTYTENYASAPQAPVSQTSASPLQGRIFCDTAPILERYWAWRTGLGWIGKNTHLIIPHAGSCFFLGEIILDREADNYDSPQRNQCGSCTRCLDACPTKALEAPFRLNSERCLSYLTIEYRGELSLNTGKKMGNKIYGCDECLKACPWNRFATPCRTAEFQPSPSLLSMKKDDWHSLSEEQYKTIFKGSAVKRAKYSGLMRNIKIIK”, which “soluble on expression in E. coli” value is on record?
A: The value was “not soluble”.

Q: For “PDVDGMITLKVDNLTYRTSPDSLRRVFEKYGRVGDVYIPREPHTKAPRGFAFVRFHDRRDAQDAEAAMDGAELDGRELRVQVARYGRRDL”, which “soluble on expression in E. coli” value is on record?
A: Its value is “soluble”.

Q: With “MSSRVANLTVIVSSKRRRVSVARFSCGKTAQLSKKQTGYYSPEIFPSTGKDCNPQPANCLKDQYVLRHCCVDDRSGKMGYSVKFLVLTRMDTETASLFHCKPCYSKMTFTIYHPLTHSFFTSCWLEHHHHHH” as the sequence, how does the “soluble on expression in E. coli” value read?
A: Its value is “not soluble”.

Q: Which “soluble on expression in E. coli” value does the source give for “MRGASGGMIQCQYEVHISKNDTYSMDRPHFHEDIEIVLCIAGEGVFFLEPEVFPLYRGQLFLIDSSILHRSVANEEYRCMVFHISSEMLHEFSSLQSNFQARSKRSGLVATLTEEATKYLESLYGKLAEDFGNEFGGDIRQTITLLTFLLTCFSHFNEAEDGEVHTNPSLDKVAPILTYIQEHLGEAMTTQSIADAFYMSKYHLCHIFKEGTGFSLMDYVINCRILKARSLLRNGMRVQEVGENVGFRNNEHFIRTFKKLTGTPPKRYAMMYKDSDQNAQRELVVVEGKDGKIIEGIKA” here?
A: The value was “not soluble”.

Q: For “NTRGMALFADGGLIATKPYSASGSYINKMSDYCASCAYQVKLKSGEKACPLNSLYWRFMLKHRDRLANNPRIGMLYKTWDKMTSDSQQAILSTADAYLSQIESL”, which “soluble on expression in E. coli” value is on record?
A: Its value is “not soluble”.

Q: For “MSQFTLYKNKDKSSAKTYPYFVDVQSDLLDNLNTRLVIPLTPIELLDKKAPSHLCPTIHIDEGDFIMLTQQMTSVPVKILSEPVNELSTFRNEIIAAIDFLITGI”, which “soluble on expression in E. coli” value is on record?
A: Its value is “soluble”.

Q: For “MSEVLNRQSREITTIVSQPNISRPNYQREKGKERLLGIKATESSNKAGQSFVPQLNPSGTLFTISMKPPAKINTGYTPVDEQKEVKAEVRNSEITEKSFGQAKFIGVSAGNTVGYVIPNLEPGLSQYLQANRSLRAIGVISSRVGAAAQIMAADEAVKKTNSELIRLELARDELGGPGHGVFALFGAEDVADVIRAVEIALKATEEYYQNIKNTPAGKIETHYTARAAAALNKAFGAPLNQAFGIIIGAPAGVGLLMSDTALKTAHVTMVSFWGPSVVQAFANEVWFTVTGDSAAVKNALEAAREVGLQVLAEFRA”, which “soluble on expression in E. coli” value is on record?
A: Its value is “not soluble”.

Q: With “MGSDKIHHHHHHMEEINKYIQNSSETGGEIYNLIEELFPICRSITGNGVRKTMDIIRKHIPLEIHEVKSGTKVFDWTVPKEWNIKDAYVRNSKGEKVIDFKENNLHVMSYSVPVHKTMTLDELKPYLHTIPGNKDRIPYLTSYYKENWGFSLTQNKFDELCDDDYEVVIDSSLEDGSLTYGEYYIRGELEEEILLTTYTCHPSMCNDNLSGVALITFIAKALSKLKTKYSYRFLFAPETIGSITWLSRNEDKLKNIKMGLVATCVGDAGIKNYKRTKFGDAEIDKIVEKVLMHCGSEYYVADFFPWGSDERQFSSPGINLSVGSLMRSCYGFDGYHTSADNLCYMNKDGLADSYKTYLEVIYTIENNRTYLNLNPKCEPQLGKRGIYRMIGGGSDYPFDEFAMFWVLNMSDGKNSLLDIAYKSGMEFRRIKYAADALYRVELLKLV” as the sequence, how does the “soluble on expression in E. coli” value read?
A: The value was “not soluble”.

Q: For “GHMEERVLGMPAVESNMFPLGKQAPPFALTNVIDGNVVRLEDVKSDAATVIMFICNHCPFVKHVQHELVRLANDYMPKGVSFVAINSNDAEQYPEDSPENMKKVAEELGYPFPYLYDETQEVAKAYDAACTPDFYIFDRDLKCVYRGQLDDSRPNNGIPVTGESIRAALDALLEGRPVPEKQKPSIGCSIKWKPSA”, which “soluble on expression in E. coli” value is on record?
A: The value was “soluble”.

Q: With “MAKNDIWTPLESNPDSLYLYSCKLGQSKLKFVDIYGFNNDLLDMIPQPVQAVIFLYPVNDNIVSENNTNDKHNLKENFDNVWFIKQYIPNSCGTIALLHLYGNLRNKFELDKDSVLDDFFNKVNEMSAEKRGQELKNNKSIENLHHEFCGQVENRDDILDVDTHFIVFVQIEGKIIELDGRKDHPTVHCFTNGDNFLYDTGKIIQDKFIEKCKDDLRFSALAVIPNDNFDII” as the sequence, how does the “soluble on expression in E. coli” value read?
A: Its value is “soluble”.
